Experimental data taken from PMC6769069.

Target: HybD endoprotease fused with peptide T18 of adenylate cyclase (pT18-hybD) (Escherichia coli) (UniProt P37182)
Assay: two-hybrid; bacterial two-hybrid (adenylate cyclase fragments T25 and T18) in E. coli BTH101; T25 at the N-terminus of the large subunit variants, T18 fused with HybD; anaerobic growth in TGYEP medium pH 6.5 at 30°C for 16 h; β-galactosidase activity according to Miller

UniProt P37182, sequence (P37182 whole entry, the tested form may be a part): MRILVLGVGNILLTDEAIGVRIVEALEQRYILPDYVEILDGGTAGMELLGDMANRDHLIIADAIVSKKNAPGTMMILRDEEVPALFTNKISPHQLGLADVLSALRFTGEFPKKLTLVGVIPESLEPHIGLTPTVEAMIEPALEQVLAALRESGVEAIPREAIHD

“pro-HybC^§ fused to peptide T25 of adenylate cyclase (pT25-hybC^§) (from UniProt P0ACE0 2-552)” showed a β-galactosidase activity of 820 units.
